According to PMC5972581 (2018):

Target: T1, GST-OsPGL1^46-604 (rice (Oryza sativa), UniProt B7EDM4)
T1 chain: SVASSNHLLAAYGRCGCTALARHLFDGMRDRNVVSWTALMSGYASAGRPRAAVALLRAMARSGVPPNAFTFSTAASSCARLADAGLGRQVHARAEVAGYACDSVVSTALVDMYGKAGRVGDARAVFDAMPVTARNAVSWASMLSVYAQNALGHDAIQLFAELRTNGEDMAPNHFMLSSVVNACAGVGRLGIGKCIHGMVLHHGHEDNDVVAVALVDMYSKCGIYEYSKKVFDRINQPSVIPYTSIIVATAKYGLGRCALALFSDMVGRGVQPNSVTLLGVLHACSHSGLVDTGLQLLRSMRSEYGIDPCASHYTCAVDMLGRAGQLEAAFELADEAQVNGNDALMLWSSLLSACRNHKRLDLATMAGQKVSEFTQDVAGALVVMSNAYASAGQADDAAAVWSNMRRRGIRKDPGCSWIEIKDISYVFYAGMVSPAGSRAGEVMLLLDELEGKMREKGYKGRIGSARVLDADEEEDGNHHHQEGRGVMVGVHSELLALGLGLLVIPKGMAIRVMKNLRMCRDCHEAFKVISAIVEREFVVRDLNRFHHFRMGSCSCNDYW
Experiment: GST pull-down

B1: Trx-OsMORF8-His (protein)
chain: MASASRFLLLSRLPAAAASSTSRLLRPLSAAGSLLPAALAPSAPRAAAAAARCFATQPATSSLRDSSPNWSNRPPKETILLDGCDFEHWLVVVEPPPGDPSNPEPTRDEIIDGYIKTLAQVVGSEEEARHKIYSVSTRHYFAFGALVSEELSYKLKELPKVRWVLPDSYLDVRNKDYGGEPFINGEAVPYDPKYHEEWVRNNARANERSRRNDRPRNFDRSRNFERRRENMQNFQNRDVPPGQGFNSPPPPGQGPVPPRDAPPMHHAQGNVPPPPPPNAGPPNYQPHAPNPQGYTNYQQGGAPGYQGGPPGYQGSNQGYQGPPPPPPSAYQGNNPGYQGGGPGYQGGNPPPYQGGNPGYAPGYHGQGGNPSYQQGGDNYNAGVPAYERDGQGRNYQ
**Q.** Does B1 bind?
**A.** Result: binds

B2: Trx-OsMORF9-His (protein)
chain: MASFPTTAAAAAAQAFAFALAPKPSSSAAAPSALFPRTAAAAAFPTLAVRGSGKARQPVVAAAAGAGTGSEQRETILLPGCDYNHWLIVMEFPKDPAPTREQMIDTYLNTLATVLGSMEEAKKNMYAFSTTTYTGFQCTVDEETSEKFKGLPGVLWVLPDSYIDVKNKDYGGDKYINGEIIPCTYPTYQPKERRTSKYESRRYERRRDGPPASRRPRPQTAQPESASSS
**Q.** Does B2 bind?
**A.** Result: binds
